{"source": "paper PMC11496107", "key": {"co-repressor peptide": {"molecular_target": "co-repressor peptide", "assay": "fluorescence polarisation; fluorescence anisotropy assay in vitro, receptor LBD with co-repressor peptide; conditions not shown (Supplementary Methods)"}, "Gal4-NCoR (ID 1 + 2)": {"molecular_target": "Gal4-NCoR (ID 1 + 2)", "assay": "mammalian two-hybrid assay (luciferase reporter, HEK293 cells)", "settings": "20 h, parent: 100, read off a plot"}}, "data": [{"substance": "LXRα ligand-binding domain (LBD) p.M346V (domain or fragment)", "values": [{"measurement": "fold reduction of affinity (against the wild-type LBD)", "setting": "co-repressor peptide", "result": 2, "unit": "fold"}]}, {"substance": "LXRα-VP16 (wild-type liver X receptor-α fused to VP16) mutant L217P [human] / Gal4-NCoR (ID 1 + 2) [not stated] chain 1 L217P", "values": [{"measurement": "percent of parent", "setting": "Gal4-NCoR (ID 1 + 2); LOF sub-panel, highest T0901317 (T09) dose plotted (rightmost point)", "result": 100, "unit": "% WT"}, {"measurement": "percent of parent", "setting": "Gal4-NCoR (ID 1 + 2); LOF sub-panel, untreated condition (leftmost point, plotted an order of magnitude below the lowest T09 dose)", "result": 75, "unit": "% WT"}]}, {"substance": "LXRα-VP16 (wild-type liver X receptor-α fused to VP16) mutant M346V [human] / Gal4-NCoR (ID 1 + 2) [not stated] chain 1 M346V", "values": [{"measurement": "percent of parent", "setting": "Gal4-NCoR (ID 1 + 2); GOF sub-panel, highest T0901317 (T09) dose plotted (rightmost point)", "result": 12, "unit": "% WT"}, {"measurement": "percent of parent", "setting": "Gal4-NCoR (ID 1 + 2); GOF sub-panel, untreated condition (leftmost point, plotted an order of magnitude below the lowest T09 dose)", "result": 65, "unit": "% WT"}]}]}
